Assay results reported in patent publication US20240181006A1, “POLYPEPTIDES BINDING ADAMTS5, MMP13 AND AGGRECAN” (Merck Patent GmbH, priority 2017, published 2024).

B1: anti-ADAMTS5 ISVD 02F03 (VHH)
VHH: EVQLVESGGGVVQPGGSLRLSCAASGRTVSSYAMGWFRQAPGKEREFVAGISRSAERTYYVDSLKGRFTISRDNSKNTVYLQMNSLRPEDTALYYCAADLDPNRIFSREEYAYWGQGTLVTVSS
B2: anti-Aggrecan ISVD 114F08 (VHH)
VHH: EVQLVESGGGLVQAGGSLRLSCAASGSTFIINVVRWYRRTPGKQRELVATISSGGNANYVDSVRGRFSISRDGAKNAVDLQMNGLKPEDTAVYYCNVPTTHYGGVYYGPYWGQGTLVTVSS

Key:
[1] = target: bovine ADAMTS5 (bovine) (UniProt Q9TT92); test: SPR (Biacore T100), ADAMTS5 immobilized on CM5, 100 nM ISVD, Experiment 3
[2] = target: recombinant dog Aggrecan G1-IGD-G2 (dog) (UniProt Q28343); test: periplasmic extract ELISA on Dog G1-IGD-G2
[3] = target: recombinant human Aggrecan G1-IGD-G2 (human) (UniProt P16112); test: periplasmic extract ELISA on Hu G1-IGD-G2
[4] = target: recombinant cynomolgus Aggrecan G1-IGD-G2 (cynomolgus); test: periplasmic extract ELISA on Cy G1-IGD-G2
[5] = target: recombinant bovine Aggrecan G1-IGD-G2 (bovine) (UniProt P13608); test: periplasmic extract ELISA on Bov G1-IGD-G2
[6] = target: recombinant rat Aggrecan G1-IGD-G2 (rat) (UniProt P07897); test: periplasmic extract ELISA on Rat G1-IGD-G2

Binder | koff [1] [s⁻¹] | OD 450 nm [2] [OD 450 nm] | OD 450 nm [3] [OD 450 nm] | OD 450 nm [4] [OD 450 nm] | OD 450 nm [5] [OD 450 nm] | OD 450 nm [6] [OD 450 nm]
B1 | 4.3e-05 | – | – | – | – | –
B2 | – | 1.9 | 2.38 | 2.32 | 1.18 | 2.05
